Data published in patent US12144869B2, “Anti-ROR1 antibody conjugates, compositions comprising anti ROR1 antibody conjugates, and methods of making and using anti-ROR1 antibody conjugates” (Sutro Biopharma, Inc., priority 2022, dated 2024).

Assays:
human ROR1-Fz = molecular target: T1, human ROR1-Fz (Homo sapiens, UniProt Q01973); assay: Biacore off-rate and kinetic analysis, ROR1-Fz; assay type: binding; conditions: for Biacore human ROR1-Fz ka / Biacore human ROR1-Fz kd: Table 11, SP34 light chain
T1 construct: Frizzled (Fz, residues 165-305); His6 (C); purchased Acro Biosystems; host or cells: HEK293
T1 sequence (Q01973 165-305): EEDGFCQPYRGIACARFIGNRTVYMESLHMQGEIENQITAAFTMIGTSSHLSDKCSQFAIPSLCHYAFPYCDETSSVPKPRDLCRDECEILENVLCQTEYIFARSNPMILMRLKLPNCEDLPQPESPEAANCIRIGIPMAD
Description: Anti-Fc polyclonal antibodies were immobilized onto a CMS chip (GE Life Sciences) using amine coupling chemistry (from Amine Coupling Kit, GE Life Sciences). The immobilization steps were carried out at a flow rate of 25 μL/min in 1×HBS-EP+buffer (GE Life Sciences; 10× Stock diluted before use). The sensor surfaces were activated for 7 min with a mixture of NHS (0.05 M) and EDC (0.2 M). The Anti-Fc antibodies were injected over all 4 flow cells at a concentration of 25 ug/ml in 10 mM sodium acetate, pH 4.5, for 7 min. Ethanolamine (1 M, pH 8.5) was injected for 7 min to block any remaining activated groups. An average of 12,000 response units (RU) of capture antibody was immobilized on each flow cell.
Off-rate and kinetic binding experiments were performed at 25° C. using 1×HBS-EP+buffer. Test and control antibodies were injected over the anti-Fc surface at concentrations of 5-10 μg/mL for 12 seconds at a flow rate of 10 μL/min on flow cells 2, 3 and 4, followed by a buffer wash for 30 seconds at the same flow rate. Kinetic characterization of antibody samples was carried out with a range of antigen concentrations from 1-100 nM and 1 injection of 0 nM antigen (for example, 100, 50, 25, 6.25, 1.56 and 0 nM). After capturing ligand (antibody) on the anti-Fc surface, the analyte (hROR1, Fz or Kr domains, Acro Biosystems, Delaware) was bound for 180 seconds, followed by a 600 second dissociation phase at a flow rate of 50 μL/min. Between each ligand capture and analyte binding cycle, regeneration was carried out using 2 injections of 10 mM Glycine pH 2.0 for 30 seconds at 30 μL/min, followed by a 30 second buffer wash step.
The data was fit with the Biacore T200 Evaluation software, using a 1-1 Langmuir binding model. KD (affinity, nM) was determined as a ratio of the kinetic rate constants calculated from the fits of the association and dissociation phases.
For anti-CD3-LC-containing IgGs that had detectable ROR1-binding in ELISA (1944-A07 and 1987-C05 variants), those antibodies were further tested for binding by surface plasmon resonance (SPR). Binding kinetics were assessed to the ROR1-frizzled domain (hROR1-Fz) or the ROR1-extracellular domain (hROR1) for 1944-A07 and 1987-C05 variants, respectively. Briefly, anti-ROR1 antibodies were captured via anti-human Fc polyclonal antibodies immobilized to a CM5 chip, and ROR1 recombinant proteins were flowed across the surface to assess binding kinetics. hROR1 or hROR1-Fz domain (Acro Biosystems, Delaware) binding was tested at 100, 50, 25, 6.25, 1.5625 nM. The data was fit with the Biacore™ T200 Evaluation software, using a 1-1 Langmuir binding model. KD (affinity, nM) was determined as a ratio of the kinetic rate constants calculated from the fits of the association and dissociation phases.

[1] = Differential scanning fluorimetry (protein thermal shift; TM1/TM2); assay type: physicochemical; conditions: Table 11; melting temperature of the Fab domain
Description: A protein thermal shift assay was carried out by mixing the protein to be assayed with an environmentally sensitive dye (SYPRO Orange, Life Technologies Cat #S-6650) in a phosphate buffered solution (PBS), and monitoring the fluorescence of the mixture in real time as it underwent controlled thermal denaturation. Protein solutions between 0.2-2 mg/mL were mixed at a 1-1 volumetric ratio with a 1-500 PBS-diluted solution of SYPRO Orange (SYPRO Orange stock dye is 5000× in DMSO). 10 μL aliquots of the protein-dye mixture were dispensed in quadruplicate in a 384-well microplate (Bio-Rad Cat #MSP-3852), and the plate was sealed with an optically clear sealing film (Bio-Rad Cat #MSB-1001) and placed in a 384-well plate real-time thermocycler (Bio-Rad CFX384 Real Time System). The protein-dye mixture was heated from […], at increments of 0.1° C. per cycle (˜1.5° C. per minute), allowing 3 seconds of equilibration at each temperature before taking a fluorescence measurement. At the end of the experiment, the transition melting temperatures (TM1 and TM2) were determined using the Bio-Rad CFX manager software. TM1 represents the melting temperature of the Fc domain. TM2 represents the melting temperature of the Fab domain.
For the thermal stability of an antibody, the first melting peak (Tm1) coincides with the unfolding of the CH2 domain (FC stability), while the second melting peak (Tm2) occurs upon unfolding of the Fab domain.

[2] = Table 7, sample ROR1 Fz, 1944-A07 HC with different LCs

Molecule | TM2 (° C.) [1] [°C] | Biacore human ROR1-Fz ka (human ROR1-Fz) [M⁻¹ s⁻¹] | Biacore human ROR1-Fz kd (human ROR1-Fz) [s⁻¹] | other results
1944-A07 HC w/hUCHT1 LC3: HC of lead antibody 1944-A07 co-expressed with the LC of anti-CD3 antibody "hUCHT1-LC3" (antibody, V domains shown) VH: EVQLVESGGGLVQPGGSLRLSCAASGFNITGYYIHWVRQAPGKGLEWVGYISPNSGSTYYADSVKGRFTISADTSKNTAYLQMNSLRAEDTAVYYCARDSRRYVRPFDYWGQGTLVTVSS VL: DIQMTQSPSTLSASVGDRVTITCRASQDIRNYLNWYQQKPGKAPKLLIYYTSRLHSGVPSRFSGSGSGTEYTLTISSLQPDDFATYYCQQGNTLPWTFGGGTKVEIK |  |  |  | ka1 (human ROR1-Fz; [2]): 1.85e+06 M⁻¹ s⁻¹; kd1 (human ROR1-Fz; [2]): 0.119 s⁻¹; KD (SPR binding kinetics) (human ROR1-Fz; hROR1-Fz, 1944-A07 variants): binding was not detected
1944-A07 HC w/hOKT3 LC1: HC of lead antibody 1944-A07 co-expressed with the LC of anti-CD3 antibody "hOKT3-LC1" (antibody, V domains shown) VH: EVQLVESGGGLVQPGGSLRLSCAASGFNITGYYIHWVRQAPGKGLEWVGYISPNSGSTYYADSVKGRFTISADTSKNTAYLQMNSLRAEDTAVYYCARDSRRYVRPFDYWGQGTLVTVSS VL: DIQMTQSPSSLSASVGDRVTITCSASSSVSYMNWYQQKPGKAPKRLIYDTSKLASGVPSRFSGSGSGTEYTLTISSLQPEDFATYYCQQWSSNPFTFGQGTKLEIK |  |  |  | KD (human ROR1-Fz; [2]): Not detected
SRP2196-A05 (antibody, V domains shown) VH: EVQLVESGGGLVQPGGSLRLSCAASGFNITNYYIHWVRQAPGKGLEWVGYISPNSGATYQADSVKGRFTISADTSKNTAYLQMNSLRAEDTAVYYCARDSRRYVRSWDYWGQGTLVTVSS VL: QAVVTQESALTTSPGETVTLTCRSSTGAVTTSNYANWVQEKPDHLFTGLIGGTNKRAPGVPARFSGSLIGDKAALTITGAQTEDEAIYFCALWYSNLWVFGGGTKLTVL | 71 | 175000 | 0.000682 | 
1944-A07 HC w/hSP34 LC3: HC of lead antibody 1944-A07 co-expressed with the LC of anti-CD3 antibody "hSP34-LC3" (antibody, V domains shown) VH: EVQLVESGGGLVQPGGSLRLSCAASGFNITGYYIHWVRQAPGKGLEWVGYISPNSGSTYYADSVKGRFTISADTSKNTAYLQMNSLRAEDTAVYYCARDSRRYVRPFDYWGQGTLVTVSS VL: QTVVTQEPSLTVSPGGTVTLTCGSSTGAVTSGYYPNWFQQKPGQAPRGLIGGTKFLAPGTPARFSGSLLGGKAALTLSGVQPEDEAEYYCALWYSNRWVFGGGTQLTVTG |  |  |  | ka1 (human ROR1-Fz; [2]): 360000 M⁻¹ s⁻¹; kd1 (human ROR1-Fz; [2]): 0.00228 s⁻¹
SRP2196-A10 (antibody, V domains shown) VH: EVQLVESGGGLVQPGGSLRLSCAASGFNITGYYIHWVRQAPGKGLEWVGYISPNSGATHYADSVKGRFTISADISKNTAYLQMNSLRAEDTAVHYCARDSRRYVRSWDYWGQGTLVTVSS VL: QAVVTQESALTTSPGETVTLTCRSSTGAVTTSNYANWVQEKPDHLFTGLIGGTNKRAPGVPARFSGSLIGDKAALTITGAQTEDEAIYFCALWYSNLWVFGGGTKLTVL | 68 | 172000 | 0.000479 | 
SRP2196-A06 (antibody, V domains shown) VH: EVQLVESGGGLVQPGGSLRLSCAASGFNITGYYIHWVRQAPGKGLEWVGQISPNSGSTHQADSVKGRFTISADTSKNTAYLQMNSLRAGDTAVYYCARDSRRYVRGWDYWGQGTLVTVSS VL: QAVVTQESALTTSPGETVTLTCRSSTGAVTTSNYANWVQEKPDHLFTGLIGGTNKRAPGVPARFSGSLIGDKAALTITGAQTEDEAIYFCALWYSNLWVFGGGTKLTVL | 70 | 180000 | 0.00069 | 
SRP2196-A01 (antibody, V domains shown) VH: EVQLVESGGGLVQPGGSLRLSCAASGFNITGYYIHWVRQAPGKGLEWVGQISPNSGYTYYADSVKGRFTISADTSKNTAYLQMNSLRAEDTAVYYCARDSRRYVRGWDYWGQGTLVTVSS VL: QAVVTQESALTTSPGETVTLTCRSSTGAVTTSNYANWVQEKPDHLFTGLIGGTNKRAPGVPARFSGSLIGDKAALTITGAQTEDEAIYFCALWYSNLWVFGGGTKLTVL | 74 |  |  | 
SRP2196-A02 (antibody, V domains shown) VH: EVQLVESGGGLVQPGGSLRLSCAASGFNITGYYIHWVRQAPGKGLEWVGQISPNSGATHDADSVKGRFTISADTSKNTAYLQMNSLRAEDTAVYYCARDSRRYVRGWDYWGQGTLVTVSS VL: QAVVTQESALTTSPGETVTLTCRSSTGAVTTSNYANWVQEKPDHLFTGLIGGTNKRAPGVPARFSGSLIGDKAALTITGAQTEDEAIYFCALWYSNLWVFGGGTKLTVL | 71 |  |  | 
SRP2196-B05 (antibody, V domains shown) VH: EVQLVESGGGLVQPGGSLRLSCAASGFNITGYYIHWVRQAPGKGLEWVGQISPNSGATYHADSVKGRFTISADTSKNTAYLQMNSLRAEDTAVYYCARDSRRYVRGWDYWGQGTLVTVSS VL: QAVVTQESALTTSPGETVTLTCRSSTGAVTTSNYANWVQEKPDHLFTGLIGGTNKRAPGVPARFSGSLIGDKAALTITGAQTEDEAIYFCALWYSNLWVFGGGTKLTVL | 73 |  |  | 
SRP2196-A08 (antibody, V domains shown) VH: EVQLVESGGGLVQPGGSLRLSCAASGFNITGYYIHWVRQAPGKGLEWVGYISPNSGSTYKADSVKGRFTISADTSRNTAYLQMNSLRAEDTAVYYCARDSRRYVRSWDYWGQGTLVTVSS VL: QAVVTQESALTTSPGETVTLTCRSSTGAVTTSNYANWVQEKPDHLFTGLIGGTNKRAPGVPARFSGSLIGDKAALTITGAQTEDEAIYFCALWYSNLWVFGGGTKLTVL | 69 | 183000 | 0.00078 | 
SRP2196-A04 (antibody, V domains shown) VH: EVQLVESGGGLVQPGGSLRLSCAASGFNISPYYIHWVRQAPGKGLEWVGQIYPISGHTYQADSVKGRFTISADTSKNTAYLQMNSLRAEDTAVYYCARESRRYVGPFGYWGQGTLVTVSS VL: QAVVTQESALTTSPGETVTLTCRSSTGAVTTSNYANWVQEKPDHLFTGLIGGTNKRAPGVPARFSGSLIGDKAALTITGAQTEDEAIYFCALWYSNLWVFGGGTKLTVL |  | 139000 | 0.000343 | 
SRP1944-A07 w SP34 LC3: "initial antibody leads constructed with an SP34 light chain" (antibody, V domains shown) VH: EVQLVESGGGLVQPGGSLRLSCAASGFNITGYYIHWVRQAPGKGLEWVGYISPNSGSTYYADSVKGRFTISADTSKNTAYLQMNSLRAEDTAVYYCARDSRRYVRPFDYWGQGTLVTVSS VL: QTVVTQEPSLTVSPGGTVTLTCGSSTGAVTSGYYPNWFQQKPGQAPRGLIGGTKFLAPGTPARFSGSLLGGKAALTLSGVQPEDEAEYYCALWYSNRWVFGGGTQLTVTG |  | 597000 | 0.0085 | 
